# In US20140005119A1, “COMPOSITIONS AND METHODS FOR INHIBITING THE ACTIVITY OF P110a MUTANT PROTEINS” (Case Western Reserve University, priority 2012, published 2014):
# Where no end group is shown, it is not given here.
# T1: interaction between p110α E545K and IRS1 (Homo sapiens, UniProt P35568)
# T1 construct: In KI DLD1 cells, IRS1 was co-immunoprecipitated with p110α E545K but not the WT p110α; endogenous in cells; host or cells: DLD1 p110α E545K 3×FLAG knock-in cells (rAAV gene targeting of the endogenous allele)
# T1 sequence (P35568 1-1242): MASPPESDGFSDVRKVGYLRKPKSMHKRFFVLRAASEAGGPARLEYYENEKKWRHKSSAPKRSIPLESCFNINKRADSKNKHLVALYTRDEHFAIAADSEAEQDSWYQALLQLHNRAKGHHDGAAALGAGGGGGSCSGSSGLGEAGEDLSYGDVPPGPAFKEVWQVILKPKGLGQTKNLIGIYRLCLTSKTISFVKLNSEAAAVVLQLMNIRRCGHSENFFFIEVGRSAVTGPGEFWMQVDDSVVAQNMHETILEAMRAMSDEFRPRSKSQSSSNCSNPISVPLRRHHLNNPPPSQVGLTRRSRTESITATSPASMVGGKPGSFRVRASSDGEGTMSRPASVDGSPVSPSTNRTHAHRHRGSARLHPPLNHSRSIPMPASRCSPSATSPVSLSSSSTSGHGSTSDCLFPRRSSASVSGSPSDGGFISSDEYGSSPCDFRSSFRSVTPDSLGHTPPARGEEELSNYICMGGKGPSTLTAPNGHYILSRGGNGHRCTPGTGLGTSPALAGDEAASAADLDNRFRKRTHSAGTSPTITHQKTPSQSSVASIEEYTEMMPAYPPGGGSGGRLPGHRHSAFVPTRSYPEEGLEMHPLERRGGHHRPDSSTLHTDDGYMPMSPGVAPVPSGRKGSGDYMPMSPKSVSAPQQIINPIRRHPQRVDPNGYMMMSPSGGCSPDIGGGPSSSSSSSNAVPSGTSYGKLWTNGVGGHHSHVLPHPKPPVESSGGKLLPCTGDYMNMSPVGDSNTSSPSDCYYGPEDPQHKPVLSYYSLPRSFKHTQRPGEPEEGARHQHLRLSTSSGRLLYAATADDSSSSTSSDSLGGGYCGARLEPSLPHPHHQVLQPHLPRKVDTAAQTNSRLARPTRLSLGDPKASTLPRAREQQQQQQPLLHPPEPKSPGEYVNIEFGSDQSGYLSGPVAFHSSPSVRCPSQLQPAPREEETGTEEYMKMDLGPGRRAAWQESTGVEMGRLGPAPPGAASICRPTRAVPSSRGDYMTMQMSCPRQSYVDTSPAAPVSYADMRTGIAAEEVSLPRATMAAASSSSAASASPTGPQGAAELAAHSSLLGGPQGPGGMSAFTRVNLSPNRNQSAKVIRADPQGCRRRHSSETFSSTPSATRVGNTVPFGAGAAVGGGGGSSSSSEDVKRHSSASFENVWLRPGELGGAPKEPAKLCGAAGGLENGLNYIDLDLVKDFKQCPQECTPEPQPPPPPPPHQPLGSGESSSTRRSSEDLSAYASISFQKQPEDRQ
# T2: IRS1-p110α E545K interaction in DLD1 cells (Homo sapiens, UniProt P35568)
# T2 construct: endogenous in cells; host or cells: DLD1 p110α E545K 3×FLAG knock-in cells (rAAV gene targeting of the endogenous allele)
# T2 sequence (P35568 1-1242): T1 sequence (P35568 1-1242)
# B1: 6×His-tagged IRS1 middle fragment (AA 585-962) (other, UniProt P35568 585-962, looked up)
# chain: EGLEMHPLERRGGHHRPDSSTLHTDDGYMPMSPGVAPVPSGRKGSGDYMPMSPKSVSAPQQIINPIRRHPQRVDPNGYMMMSPSGGCSPDIGGGPSSSSSSSNAVPSGTSYGKLWTNGVGGHHSHVLPHPKPPVESSGGKLLPCTGDYMNMSPVGDSNTSSPSDCYYGPEDPQHKPVLSYYSLPRSFKHTQRPGEPEEGARHQHLRLSTSSGRLLYAATADDSSSSTSSDSLGGGYCGARLEPSLPHPHHQVLQPHLPRKVDTAAQTNSRLARPTRLSLGDPKASTLPRAREQQQQQQPLLHPPEPKSPGEYVNIEFGSDQSGYLSGPVAFHSSPSVRCPSQLQPAPREEETGTEEYMKMDLGPGRRAAWQESTGVEM
# notes: range 585-962; Expressed in E. coli BL21, purified on Ni-NTA beads; also called middle part of IRS1; middle fragment of IRS1; not shown: 6×His tag
# Legend:
# [1] = biological target: T1, interaction between p110α E545K and IRS1; assay: Peptide competition assay in cell lysates (anti-FLAG immunoprecipitation, anti-IRS1 blot); format: binding; conditions: peptide added into cell lysates of p110α E545K 3×FLAG KI cells
# Method: FIGS. 3(A-M) illustrate: (A, B) Mapping peptides (P3, SEQ ID NO: 1; P4 SEQ ID NO: 2; P5, SEQ ID NO: 3; P6, SEQ ID NO: 4) derived from mutant p110α that inhibit interaction between IRS1 and p110α E545K. The indicated peptides were added into cell lysates made from the p110α E545K 3×FLAG KI cells. Cell lysates were immunoprecipitated with beads conjugated with anti-FLAG antibodies and then blotted with anti-IRS1 antibodies. (C) Immunoblots of cell lysates made from the p110α E545K 3×FLAG KI cells. Cell lysates were immunoprecipitated with beads conjugated with anti-FLAG antibodies and then blotted with the indicated antibodies. (D) Immunoblots of cell lysate of Myc-tagged IRS1 plasmid, which co-transfected an ABD domain deletion construct of the FLAG-tagged p110α E545K mutant (ΔABD), incubated with the indicated amount of stapled p110α mutant peptides, and then immunoprecipitated with anti-FLAG antibodies and blotted with the indicated antibodies. (J, K) Immunoblot and graph of purified recombinant p110α E545K mutant proteins mixed with the indicated components and quantified using an in vitro lipid kinase assay. (L, M) Immunoblots of the indicated cell lines serum-starved, stimulated with 1 μg/ml insulin for 30 min, and then treated with or without the indicated peptides. Cell lysates were blotted with the indicated antibodies. All error bars show mean±SEM. *p<0.05, **p<0.001, t test.
# (§1) For Co-immunoprecipitation (Co-IP), cells were harvested, washed with PBS, and then lysed in IP buffer (50 mMTris [pH 7.4], 150 mMNaCl, 5 mMEDTA [pH 8.0], 0.5% NP40, 1 mM PMSF, complete Protease Inhibitor Cocktail tablet [Roche]; supplemented with phosphatase inhibitors [1 mM Na3VO4, 20 mM NaF, 0.1 mM b-glycerophosphate, 20 mM sodium pyrophosphate] when necessary). For immunoblotting (IB) of phospho-specific proteins, unless stated otherwise, cells were lysed in urea buffer (100 mM NaH2PO4, 10 mM Tris-HCl, 8 M Urea, 1 mM Na3VO4, 20 mM NaF, 0.1 mM β-glycerophosphate, 20 mM sodium pyrophosphate, supplemented with complete Protease Inhibitor Cocktail tablet [Roche], pH 8.0). Lysates were then cleared by centrifugation (14,000 rpm, 10 min) and protein concentration in supernatants was determined with a BCA protein assay kit (Pierce, Rockford, Ill.). Equal amounts of total protein were used for IP or IB.
# For in vitro peptide competition assay, the p110α mutant-FLAG-tagged cells were grown to 90% confluency, serum-starved overnight, and lysed as described previously. Peptides were then added to the cell lysates, incubated for 30 min at 4° C. and followed by immunoprecipitation assay.
# [2] = biological target: T2, IRS1-p110α E545K interaction in DLD1 cells; assay: Co-IP after peptide added to culture medium of p110α E545K 3×FLAG KI DLD1 cells; format: cell-based; design: dose or concentration left out as unconfirmed; conditions: peptide added to cell culture medium for 16 hr
# Method: FIG. 4(A-F) illustrate: (A) Schematic diagram of linear and stapled WT and mutant peptides derived from p110α (SEQ ID NOs: 5, 6, 7 and 8). (B) Immunoblots of cell lysates immunoprecipitated with beads conjugated with anti-FLAG antibodies and then blotted with the indicated antibodies. Linear or stapled WT and mutant peptide were added into culture medium of the p110α E545K 3×FLAG KI cells for 16 hr. (C) Immunoblots of cell lysates immunoprecipitated with anti-p110α antibodies and then blotted with the indicated antibodies. Vaco481 CRC cells were treated with the stapled mutant peptides at the indicated concentration. (D) Immunoblots of cell lysates blotted with the indicated antibodies. The indicated cell lines were treated with the stapled mutant peptide. (E) Immunoblots of cell lysates blotted with the indicated antibodies. The indicated cancer cell lines were treated or untreated with stapled WT or mutant peptide at […] for 2 hr. (F) Immunoblots of cell lysates were blotted with the indicated antibodies. The indicated cancer cell lines were treated with or without […] of stapled mutant peptide for 2 hr.
# as §1
# [3] = biological target: insulin receptor substrate 1 (IRS1) (UniProt P35568)
# [4] = biological target: T3, wild-type p110α (endogenous, untagged) (UniProt P42336 1-1068); assay: pull-down with His-tagged IRS1 fragment from WT-only DLD1 lysates (FIG. 1B)
# T3 construct: also called WT p110α
# T3 sequence (P42336 whole entry, the tested form may be a part): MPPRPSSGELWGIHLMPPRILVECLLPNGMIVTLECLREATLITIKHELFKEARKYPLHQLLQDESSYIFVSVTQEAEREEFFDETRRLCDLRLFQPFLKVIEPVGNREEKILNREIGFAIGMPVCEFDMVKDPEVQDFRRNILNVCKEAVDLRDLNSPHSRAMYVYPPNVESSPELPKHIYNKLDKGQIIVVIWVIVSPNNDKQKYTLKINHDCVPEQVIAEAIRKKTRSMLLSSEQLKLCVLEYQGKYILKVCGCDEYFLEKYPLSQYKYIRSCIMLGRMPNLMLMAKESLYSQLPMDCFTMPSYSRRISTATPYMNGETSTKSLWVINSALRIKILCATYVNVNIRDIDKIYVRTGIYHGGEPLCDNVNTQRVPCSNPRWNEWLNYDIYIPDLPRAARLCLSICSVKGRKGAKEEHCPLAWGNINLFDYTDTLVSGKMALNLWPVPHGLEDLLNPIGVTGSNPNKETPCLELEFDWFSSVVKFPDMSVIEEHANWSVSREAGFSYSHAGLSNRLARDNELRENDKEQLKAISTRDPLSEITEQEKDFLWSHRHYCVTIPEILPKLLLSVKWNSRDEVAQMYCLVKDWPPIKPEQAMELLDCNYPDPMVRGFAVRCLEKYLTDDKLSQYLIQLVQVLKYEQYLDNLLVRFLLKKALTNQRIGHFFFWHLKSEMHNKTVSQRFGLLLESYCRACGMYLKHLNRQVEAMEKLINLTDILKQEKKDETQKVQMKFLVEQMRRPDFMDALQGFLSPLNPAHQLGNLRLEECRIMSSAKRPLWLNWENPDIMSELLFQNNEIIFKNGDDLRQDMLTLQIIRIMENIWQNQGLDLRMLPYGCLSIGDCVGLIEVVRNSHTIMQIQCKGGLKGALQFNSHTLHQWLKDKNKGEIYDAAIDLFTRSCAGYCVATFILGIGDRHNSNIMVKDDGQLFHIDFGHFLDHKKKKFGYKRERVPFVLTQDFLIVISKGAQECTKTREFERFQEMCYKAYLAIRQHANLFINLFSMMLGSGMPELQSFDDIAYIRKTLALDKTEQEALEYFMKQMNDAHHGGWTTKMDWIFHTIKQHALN
# Text: The altered interaction properties of the mutant forms of p110α prompted us to map the minimal essential regions of IRS1 required for its interaction with p110α E545K mutant protein. For this study, we made a series of 6×His-tagged IRS1 truncation constructs (FIGS. 1A and 1C). The His-tagged IRS1 proteins were first expressed in Eschericia coli and purified with Ni-NTA beads. Then the purified proteins were used to pull down p110α from DLD1 cells expressing either the WT p110α only or the p110α E545K mutant only. With these proteins, we first mapped the mutant p110α interaction domain to the middle part of IRS1 (amino acid [AA] 585-962) (FIG. 1B). This fragment contains three YxxM motifs that mediate the pY dependent IRS1-p85 protein interaction. We thus constructed an unphosphorylatable IRS1Y3F mutant fragment (FIG. 1A). […] In contrast, neither of the single region deletions could interrupt the IRS1 mutant p110α interaction. […] Finally, similar results were also observed when the IRS1D was expressed in p110α E545K 3×FLAG KI DLD1 cells.
molecule,measurement,setting,value
30-AA mutant peptide: linear 30-AA p110α E545K mutant peptide forming two α-helix domains flanking the mutation site (EQLKAISTRDPLSEITKQEKDFLWSHRHYC-OH; listed as Homo sapiens),inhibition of the interaction between p110α E545K and IRS1,[1],inhibited
18-AA mutant peptide: linear 18-AA E545K mutant peptide corresponding to the C-terminal α-helical motif of p110α helical domain (SEITKQEKDFLWSHRHYC-OH; listed as Homo sapiens),disruption of IRS1-p110α E545K interaction in DLD1 cells,[2],neither the linear mutant peptide nor the stapled WT peptide affected the interaction
same,inhibition of the interaction between p110α E545K and IRS1,[1],moderate inhibition
same,inhibition of the interaction between p110α E545K and IRS1,[1]; listed as peptide corresponding to the C-terminal α-helical motif,inhibited
WT peptide: linear 30-AA wild-type p110α counterpart of the 30-AA E545K mutant peptide (EQLKAISTRDPLSEITEQEKDFLWSHRHYC-OH; listed as Homo sapiens) [reference compound],inhibition of the interaction between p110α E545K and IRS1,[1],failed to cause any inhibition
"p110α E545K mutant (endogenous, untagged)",AKT phosphorylation,[3],"the stapled mutant peptide, but not the WT counterpart, reduced AKT phosphorylation in mutant-only DLD1 cells"
same,AKT phosphorylation at both T308 and S473 residues,[3],"treatment of cancer cell lines (DLD1, H460, and MDA-MB361) harboring p110α E545K ... with the stapled mutant peptide resulted in reduced AKT phosphorylation"
N-terminal 21-AA mutant peptide: linear N-terminal 21-AA mutant peptide corresponding to the N-terminal α-helical motif (EQLKAISTRDPLSEITKQEKD-OH; listed as Homo sapiens),inhibition of the interaction between p110α E545K and IRS1,[1],no effect
B1,binding result,[4],no binding
